Molecular target: the molecule itself
Assay: dimer bands on SDS-PAGE (Western blot with rho1D4 antibody, silver stain); immunoaffinity-purified receptors in 0.01% or 0.2% detergent; Novex 10% Bis-Tris gels, samples kept at room temperature 10 min, not boiled

B1: CXCR4^QTY29 with C-terminal GSSG linker and rho1D4 tag (receptor, UniProt P61073 1-352, looked up)
chain: MEGISIYTSDNYTEEMGSGDYDSMKEPCFREENANYNKTFLPTIYSIIYQTGTVGNGLVILVMGYQKKLRSMTDKYRLHLSTADLQFVTTLPYWATDATANWYFGNFLCKAVHVIYTVNLYSSVLILAFISLDRYLAIVHATNSQRPRKLLAEKVVYVGVWTPAQLLTTPDYTFANVSEADDRYICDRFYPNDLWVVVFQFQHIMVGLILPGIVILSCYCIIISKLSHSKGHQKRKALKTTTTLIQAFFACWQPYYTGISIDSYILLEIIKQGCEFENTVHKWISTTEAQAFYHCCTNPTQYAYLGAKFKTSAQHALTSVSRGSSLKILSKGKRGGHSSVSTESESSSFHSS
notes: CXCR4, UniProt P61073, with 29 QTY replacements of lipid-facing transmembrane residues; also called QTY variant; source: E. coli cell-free reaction mix (pIVex2.3) with Brij-35; captured from crude supernatant (SPR); not shown: rho1D4 tag (after a GSSG linker), C-terminal, kept
binding result: binds
